Values of other authors as cited in article PMC12564422.

Molecular target: EGFR (epidermal growth factor receptor) (UniProt P00533)
Experiment: cited
Conditions: 3'-thiol; about 50 nm AuNPs, resuspended in water; aptamer M and Atto 1.2e-7 M, EGFR 880 pM, 1 h incubation; Tris-EDTA buffer listed among materials; salt, pH and …

In the case of “GGACGGATTTAATCGCCGTAGAAAAGCATGTCAAAGCCGGAACCGTCC [aptamer M (EGFR-specific)]”, the Kd is listed as 2.4 nM.
